Source: paper doi:10.1101/438713

Biological target: PvdJ-eGFP (Pseudomonas aeruginosa PAO1)
Assay: FRET or BRET

B1: PvdA-mCherry (enzyme)
chain: MTQATATAVVHDLIGVGFGPSNIALAIALQERAQAQGALEVLFLDKQGDYRWHGNTLVSQSELQISFLKDLVSLRNPTSPYSFVNYLHKHDRLVDFINLGTFYPCRMEFNDYLRWVASHFQEQSRYGEEVLRIEPMLSAGQVEALRVISRNADGEELVRTTRALVVSPGGTPRIPQVFRALKGDGRVFHHSQYLEHMAKQPCSSGKPMKIAIIGGGQSAAEAFIDLNDSYPSVQADMILRASALKPADDSPFVNEVFAPKFTDLIYSREHAERERLLREYHNTNYSVVDTDLIERIYGVFYRQKVSGIPRHAFRCMTTVERATATAQGIELALRDAGSGELSVETYDAVILATGYERQLHRQLLEPLAEYLGDHEIGRDYRLQTDERCKVAIYAQGFSQASHGLSDTLLSVLPVRAEEISGSLYQHLKPGTAARALHEHALAS
shortening of the donor fluorescence lifetime against PvdJ-eGFP alone: 10 to 15%
